Source: patent publication US10745460B2, “Peptides and combination of peptides for use in immunotherapy against various tumors” (Immatics Biotechnologies GmbH, priority 2015, dated 2020)

target: HLA-A*02:01 (Homo sapiens, UniProt P04439, D140Y/D185E/D98H/E176V/E277Q/G131W/G231S/I119V/I121R/I166T/I218V/L300P/L318F/N151K/N90K/P208A/P217A/Q86G/Q94H/R138H/R169H/T345S); assay: MHC binding assay: UV-ligand exchange with β2m ELISA (peptide exchange yield); settings: binding to HLA-A*02:01 evaluated by peptide exchange yield (UV-ligand exchange, β2m ELISA)
Method in brief: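 Peptide–MHC complexes formed by UV-ligand exchange, cleaving a UV-sensitive peptide so the test peptide can bind. Exchange yield measured by ELISA: complexes captured on streptavidin-coated wells, diluted 100-fold, detected with HRP anti-β2m (1 h, 37 °C) and TMB at 450 nm, against refolded HLA-A*02:01/MLA-001 standards (15-500 ng/ml).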

| Substance | Peptide exchange |
| --- | --- |
| 185 (TLYQGLPAEV; listed as Homo sapiens) [compound 185] | ++ (≥20% = ++) |
| 261 (GLAALAVHL; listed as Homo sapiens) [compound 261] | +++ (≥50 = +++) |
| 278 (VLEDKVLSV; listed as Homo sapiens) [compound 278] | +++ (≥50 = +++) |
| 40 (KIWEELSVLEV; listed as Homo sapiens) [compound 40] | +++ (≥50 = +++) |
| 114 (LLFPSDVQTL; listed as Homo sapiens) [compound 114] | ++ (≥20% = ++) |
| 110 (QIQGQVSEV; listed as Homo sapiens) [compound 110] | ++ (≥20% = ++) |
| 218 (SLTGANITV; listed as Homo sapiens) [compound 218] | +++ (≥50 = +++) |
| 64 (SLYAGSNNQV; listed as Homo sapiens) [compound 64] | ++ (≥20% = ++) |
| 221 (IMLNSVEEI; listed as Homo sapiens) [compound 221] | ++ (≥20% = ++) |
| 275 (AVPPPPSSV; listed as Homo sapiens) [compound 275] | ++ (≥20% = ++) |
| 37 (QIVELIEKI; listed as Homo sapiens) [compound 37] | ++ (≥20% = ++) |
| 17 (GLLPSAESIKL; listed as Homo sapiens) [compound 17] | ++++ (≥75% = ++++) |
| 200 (IMPTFDLTKV; listed as Homo sapiens) [compound 200] | +++ (≥50 = +++) |
| 21 (YLMDDFSSL; listed as Homo sapiens) [compound 21] | +++ (≥50 = +++) |
| 214 (ALFETLIQL; listed as Homo sapiens) [compound 214] | +++ (≥50 = +++) |
| 18 (KTASINQNV; listed as Homo sapiens) [compound 18] | ++ (≥20% = ++) |
| 103 (YLADTVQKL; listed as Homo sapiens) [compound 103] | ++ (≥20% = ++) |

| Substance | Peptide exchange |
| --- | --- |
| 177 (ALINVLNAL; listed as Homo sapiens) [compound 177] | +++ (≥50 = +++) |
| 285 (MLLDTVQKV; listed as Homo sapiens) [compound 285] | +++ (≥50 = +++) |
| 35 (VIIKGLEEI; listed as Homo sapiens) [compound 35] | ++ (≥20% = ++) |
| 133 (FLDGRPLTL; listed as Homo sapiens) [compound 133] | ++ (≥20% = ++) |
| 167 (LVVDEGSLVSV; listed as Homo sapiens) [compound 167] | +++ (≥50 = +++) |
| 54 (YLVPGLVAA; listed as Homo sapiens) [compound 54] | +++ (≥50 = +++) |
| 270 (TLLTFFHEL; listed as Homo sapiens) [compound 270] | +++ (≥50 = +++) |
| 138 (GIINKLVTV; listed as Homo sapiens) [compound 138] | ++ (≥20% = ++) |
| 266 (FLLDKPQDL; listed as Homo sapiens) [compound 266] | ++ (≥20% = ++) |
| 42 (KQMSISTGL; listed as Homo sapiens) [compound 42] | ++ (≥20% = ++) |
| 41 (IVTEIISEI; listed as Homo sapiens) [compound 41] | +++ (≥50 = +++) |
| 28 (IKVTDPQLLEL; listed as Homo sapiens) [compound 28] | ++ (≥20% = ++) |
| 59 (ALADGIKSFLL; listed as Homo sapiens) [compound 59] | +++ (≥50 = +++) |
| 258 (QLVQRVASV; listed as Homo sapiens) [compound 258] | ++ (≥20% = ++) |
| 31 (GLLETTGLLAT; listed as Homo sapiens) [compound 31] | +++ (≥50 = +++) |
| 171 (LLLLDVPTA; listed as Homo sapiens) [compound 171] | ++ (≥20% = ++) |

tested on: CD8+ T cells; assay: In vitro T-cell priming assay with aAPCs loaded with peptide/MHC complexes and anti-CD28 antibody (in vitro immunogenicity); format: cell-based, human; settings: percentage of positive donors, healthy HLA-A*02 donors
Text: In order to obtain information regarding the immunogenicity of the TUMAPs of the present invention, the inventors performed investigations using an in vitro T-cell priming assay based on repeated stimulations of CD8+ T cells with artificial antigen presenting cells (aAPCs) loaded with peptide/MHC complexes and anti-CD28 antibody.
In order to perform in vitro stimulations by artificial antigen presenting cells loaded with peptide-MHC complex (pMHC) and anti-CD28 antibody, the inventors first isolated CD8+ T cells from fresh HLA-A*02 leukapheresis products via positive selection using CD8 microbeads (Miltenyi Biotec, Bergisch-Gladbach, Germany) of healthy donors obtained from the University clinics Mannheim, Germany, after informed consent. […] Generation of pMHC/anti-CD28 coated beads, T-cell stimulations and readout was performed in a highly defined in vitro system using four different pMHC molecules per stimulation condition and 8 different pMHC molecules per readout condition. […]
800.000 beads/200 μl were coated in 96-well plates in the presence of 4×12.5 ng different biotin-pMHC, washed and 600 ng biotin anti-CD28 were added subsequently in a volume of 200 μl. […] Peptide specific cells were calculated as percentage of total CD8+ cells. […] In vitro priming of specific multimer+ CD8+ lymphocytes was detected by comparing to negative control stimulations. […]

| Substance | donors |
| --- | --- |
| 288 (SLYKGLLSV; listed as Homo sapiens) [compound 288] | ++++ (>=70% = ++++) |

same assay, conditions: percentage of positive wells, healthy HLA-A*02 donors

| Substance | wells |
| --- | --- |
| 287 (KIQEILTQV; listed as Homo sapiens) [compound 287] | + (<20% = +) |
